Assay results: doi:10.1101/2025.10.28.684701

B1: pCYP86A2 P1 probe (dsDNA)
DNA 1: CTACGTACAGTTGTGTTCCATTTGTTACAA
DNA 2: TTGTAACAAATGGAACACAACTGTACGTAG
B2: pCYP86A2 P2 probe (dsDNA)
DNA 1: GATATTGCAGTTGCAGCGTACACAAGTCAG
DNA 2: CTGACTTGTGTACGCTGCAACTGCAATATC
B3: pCYP86A2 P3 probe (dsDNA)
DNA 1: GATCATTGGTTTACGATCACTTGCAAAGTC
DNA 2: GACTTTGCAAGTGATCGTAAACCAATGATC
B4: pCYP86A4 P1 probe (dsDNA)
DNA 1: TCGGAAAAGTACACTTGGGCTTATA
DNA 2: TATAAGCCCAAGTGTACTTTTCCGA
B5: pCYP86A4 P2 probe (dsDNA)
DNA 1: CCACTTTGGTTAACATTTGAGGAAT
DNA 2: ATTCCTCAAATGTTAACCAAAGTGG
B6: pBDG1 P1 probe (dsDNA)
DNA 1: CGTCGTTGACCTCTGCATTACAATTGTGTC
DNA 2: GACACAATTGTAATGCAGAGGTCAACGACG
B7: pBDG1 P2 probe (dsDNA)
DNA 1: TGGCCACATGCCATCATATCACTTGTCCAT
DNA 2: ATGGACAAGTGATATGATGGCATGTGGCCA

Molecular target: T1, MBP-CFLAP1 (AKS1) (Arabidopsis thaliana, UniProt Q9C690 1-379)
T1 sequence: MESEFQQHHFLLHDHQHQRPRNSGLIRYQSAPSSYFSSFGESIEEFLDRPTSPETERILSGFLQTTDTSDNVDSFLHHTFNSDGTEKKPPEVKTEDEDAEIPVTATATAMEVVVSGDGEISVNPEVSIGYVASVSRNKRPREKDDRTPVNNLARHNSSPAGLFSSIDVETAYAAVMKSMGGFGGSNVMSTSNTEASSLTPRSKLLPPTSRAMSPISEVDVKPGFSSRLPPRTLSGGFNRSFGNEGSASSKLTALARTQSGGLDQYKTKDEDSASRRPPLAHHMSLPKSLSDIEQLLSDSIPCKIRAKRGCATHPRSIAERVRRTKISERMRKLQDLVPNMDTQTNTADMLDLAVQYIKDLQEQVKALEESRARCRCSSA
Test: EMSA

Row | Binder | binding result
1 | B1 | binds
2 | B2 | binds
3 | B3 | binds
4 | B4 | binds
5 | B5 | binds
6 | B6 | binds
7 | B7 | binds
